{
  "source": "paper PMC5345052",
  "about": "“Auto-phosphorylation Represses Protein Kinase R Activity” (Scientific Reports, 2017)",
  "target": "the molecule itself",
  "assay": "liquid chromatography; recombinant PKR isolated during purification as separate monomer and dimer species",
  "data": [
    {"protein": "PKR K296R-S33E-T42E, recombinant His-tagged full-length protein kinase R (enzyme, human, UniProt P19525 1-551, looked up, protein kinase R (PKR), human, full-length molecule with K296R and the phosphor-mimetic S33E and T42E; also called triple mutant; source: isolated by liquid chromatography as monomer and as dimer) MAGDLSAGFFMEELNTYRQKQGVVLKYQELPNEGPPHDRRFEFQVIIDGREFPEGEGRSKKEAKNAAAKLAVEILNKEKKAVSPLLLTTTNSSEGLSMGNYIGLINRIAQKKRLTVNYEQCASGVHGPEGFHYKCKMGQKEYSIGTGSTKQEAKQLAAKLAYLQILSEETSVKSDYLSSGSFATTCESQSNSLVTSTLASESSSEGDFSADTSEINSNSDSLNSSSLLMNGLRNNQRKAKRSLAPRFDLPDMKETKYTVDKRFGMDFKEIELIGSGGFGQVFKAKHRIDGKTYVIRRVKYNNEKAEREVKALAKLDHVNIVHYNGCWDGFDYDPETSDDSLESSDYDPENSKNSSRSKTKCLFIQMEFCDKGTLEQWIEKRRGEKLDKVLALELFEQITKGVDYIHSKKLIHRDLKPSNIFLVDTKQVKIGDFGLVTSLKNDGKRTRSKGTLRYMSPEQISSQDYGKEVDLYALGLILAELLHVCDTAFETSKFFTDLRDGIISDIFDKKEKTLLQKLLSKKPEDRPNTSEILRTLTVWKKSPEKNERHTC", "values": [
      {"measurement": "stoichiometry N", "value": 2}
    ]}
  ]
}
